Reference: publication PMC3716865

What was measured:
[1] = biological target: Intracellular part of Medicago truncatula Cytokinin Receptor 1 (MtCRE1′) (Medicago truncatula); assay: dynamic light scattering
[2] = biological target: Intracellular part of Medicago truncatula Cytokinin Receptor 1 (MtCRE1′) (Medicago truncatula); assay: SEC

stoichiometry N [1]: 2
stoichiometry N [2]: 2
Substance: Intracellular part of Medicago truncatula Cytokinin Receptor 1 (MtCRE1′) (domain or fragment)
